In the supplement of paper PMC5998384:

How the values were obtained:
HeLa Kyoto [1] = assay: melting temperature (median over replicates), in situ; higher = more thermally stable
HeLa Kyoto [2] = assay: solubility in G1/S (NP-40 vs SDS abundance) (log2 ratio); higher = more soluble; conditions: cell cycle stage: G1/S
HeLa Kyoto [3] = assay: solubility change mitosis vs G1/S (difference of NP-40 vs SDS log2 ratios) (log2 ratio difference); higher = more soluble in mitosis
HeLa Kyoto [4] = assay: thermal stability score vs G1/S (z-score of summed log2 fold changes over temperatures); higher = more thermally stable than in G1/S
[5] = cell cycle stage: early G1 (4.5 h after nocodazole release)
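Throughout, for melting temperature (median over replicates), in situ: HeLa Kyoto cells synchronized by double thymidine or nocodazole block, proteins quantified by TMT10plex mass spectrometry, three independent biological replicates.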
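Throughout, for solubility change mitosis vs G1/S (difference of NP-40 vs SDS log2 ratios): synchronized HeLa Kyoto cells (double thymidine block for G1/S, nocodazole release for mitosis), protein amounts in NP-40 versus SDS lysates quantified by mass spectrometry, three biological replicates.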
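Throughout, for solubility in G1/S (NP-40 vs SDS abundance): HeLa Kyoto cells arrested at G1/S by double thymidine block, proteins quantified by TMT10plex mass spectrometry in mild NP-40 versus SDS extracts, three biological replicates.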
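Throughout, for thermal stability score vs G1/S (z-score of summed log2 fold changes over temperatures): synchronized HeLa Kyoto cells, proteins quantified by TMT10plex mass spectrometry, three biological replicates, mitosis taken 0.5 h after nocodazole release, G1/S directly after double thymidine block.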

Substance	melting temperature (HeLa Kyoto [1]; cell cycle stage: G1/S) [°C]	melting temperature (HeLa Kyoto [1]; cell cycle stage: mitosis) [°C]	solubility in G1/S (log2) (HeLa Kyoto [2])	solubility change mitosis (log2) (HeLa Kyoto [3])	thermal stability score (HeLa Kyoto [4]; [5])	thermal stability score (HeLa Kyoto [4]; cell cycle stage: mitosis)
MGSKGVYQYHWQSHNVKHSGVDDMVLLSKITENSIVENLKKRYMDDYIFTYIGSVLISVNPFKQMPYFGEKEIEMYQGAAQYENPPHIYALADNMYRNMIIDRENQCVIISGESGAGKTVAAKYIMSYISRVSGGGTKVQHVKDIILQSNPLLEAFGNAKTVRNNNSSRFGKYFEIQFSPGGEPDGGKISNFLLEKSRVVMRNPGERSFHIFYQLIEGASAEQKHSLGITSMDYYYYLSLSGSYKVDDIDDRREFQETLHAMNVIGIFAEEQTLVLQIVAGILHLGNISFKEVGNYAAVESEEFLAFPAYLLGINQDRLKEKLTSRQMDSKWGGKSESIHVTLNVEQACYTRDALAKALHARVFDFLVDSINKAMEKDHEEYNIGVLDIYGFEIFQKNGFEQFCINFVNEKLQQIFIELTLKAEQEEYVQEGIRWTPIEYFNNKIVCDLIENKVNPPGIMSILDDVCATMHAVGEGADQTLLQKLQMQIGSHEHFNSWNQGFIIHHYAGKVSYDMDGFCERNRDVLFMDLIELMQSSELPFIKSLFPENLQADKKGRPTTAGSKIKKQANDLVSTLMKCTPHYIRCIKPNETKKPRDWEESRVKHQVEYLGLKENIRVRRAGYAYRRIFQKFLQRYAILTKATWPSWQGEEKQGVLHLLQSVNMDSDQFQLGRSKVFIKAPESLFLLEEMRERKYDGYARVIQKSWRKFVARKKYVQMREEASDLLLNKKERRRNSINRNFIGDYIGMEEHPELQQFVGKREKIDFADTVTKYDRRFKGVKRDLLLTPKCLYLIGREKVKQGPDKGLVKEVLKRKIEIERILSVSLSTMQDDIFILHEQEYDSLLESVFKTEFLSLLAKRYEEKTQKQLPLKFSNTLELKLKKENWGPWSAGGSRQVQFHQGFGDLAVLKPSNKVLQVSIGPGLPKNSRPTRRNTTQNTGYSSGTQNANYPVRAAPPPPGYHQNGVIRNQYVPYPHAPGSQRSNQKSLYTSMARPPLPRQQSTSSDRVSQTPESLDFLKVPDQGAAGVRRQTTSRPPPAGGRPKPQPKPKPQVPQCKALYAYDAQDTDELSFNANDIIDIIKEDPSGWWTGRLRGKQGLFPNNYVTKI [MYO1E]	49.6	49.5	-0.131	-0.207	-0.0451	1.13
MADLDSPPKLSGVQQPSEGVGGGRCSEISAELIRSLTELQELEAVYERLCGEEKVVERELDALLEQQNTIESKMVTLHRMGPNLQLIEGDAKQLAGMITFTCNLAENVSSKVRQLDLAKNRLYQAIQRADDILDLKFCMDGVQTALRSEDYEQAAAHTHRYLCLDKSVIELSRQGKEGSMIDANLKLLQEAEQRLKAIVAEKFAIATKEGDLPQVERFFKIFPLLGLHEEGLRKFSEYLCKQVASKAEENLLMVLGTDMSDRRAAVIFADTLTLLFEGIARIVETHQPIVETYYGPGRLYTLIKYLQVECDRQVEKVVDKFIKQRDYHQQFRHVQNNLMRNSTTEKIEPRELDPILTEVTLMNARSELYLRFLKKRISSDFEVGDSMASEEVKQEHQKCLDKLLNNCLLSCTMQELIGLYVTMEEYFMRETVNKAVALDTYEKGQLTSSMVDDVFYIVKKCIGRALSSSSIDCLCAMINLATTELESDFRDVLCNKLRMGFPATTFQDIQRGVTSAVNIMHSSLQQGKFDTKGIESTDEAKMSFLVTLNNVEVCSENISTLKKTLESDCTKLFSQGIGGEQAQAKFDSCLSDLAAVSNKFRDLLQEGLTELNSTAIKPQVQPWINSFFSVSHNIEEEEFNDYEANDPWVQQFILNLEQQMAEFKASLSPVIYDSLTGLMTSLVAVELEKVVLKSTFNRLGGLQFDKELRSLIAYLTTVTTWTIRDKFARLSQMATILNLERVTEILDYWGPNSGPLTWRLTPAEVRQVLALRIDFRSEDIKRLRL [COG4]	48.7	49.6	-0.0589	-0.175	0.91	1.79
MSGRSKRESRGSTRGKRESESRGSSGRVKRERDREREPEAASSRGSPVRVKREFEPASAREAPASVVPFVRVKREREVDEDSEPEREVRAKNGRVDSEDRRSRHCPYLDTINRSVLDFDFEKLCSISLSHINAYACLVCGKYFQGRGLKSHAYIHSVQFSHHVFLNLHTLKFYCLPDNYEIIDSSLEDITYVLKPTFTKQQIANLDKQAKLSRAYDGTTYLPGIVGLNNIKANDYANAVLQALSNVPPLRNYFLEEDNYKNIKRPPGDIMFLLVQRFGELMRKLWNPRNFKAHVSPHEMLQAVVLCSKKTFQITKQGDGVDFLSWFLNALHSALGGTKKKKKTIVTDVFQGSMRIFTKKLPHPDLPAEEKEQLLHNDEYQETMVESTFMYLTLDLPTAPLYKDEKEQLIIPQVPLFNILAKFNGITEKEYKTYKENFLKRFQLTKLPPYLIFCIKRFTKNNFFVEKNPTIVNFPITNVDLREYLSEEVQAVHKNTTYDLIANIVHDGKPSEGSYRIHVLHHGTGKWYELQDLQVTDILPQMITLSEAYIQIWKRRDNDETNQQGA [USP39]	51.4	51.9	-0.4	0.178	-0.187	-0.193
MSERKVLNKYYPPDFDPSKIPKLKLPKDRQYVVRLMAPFNMRCKTCGEYIYKGKKFNARKETVQNEVYLGLPIFRFYIKCTRCLAEITFKTDPENTDYTMEHGATRNFQAEKLLEEEEKRVQKEREDEELNNPMKVLENRTKDSKLEMEVLENLQELKDLNQRQAHVDFEAMLRQHRLSEEERRRQQQEEDEQETAALLEEARKRRLLEDSDSEDEAAPSPLQPALRPNPTAILDEAPKPKRKVEVWEQSVGSLGSRPPLSRLVVVKKAKADPDCSNGQPQAAPTPGAPQNRKEANPTPLTPGASSLSQLGAYLDSDDSNGSN [CCDC94]	51.6	52.3	0.299	-0.0138	0.296	0.409
MLLWPLLLLLLLLPTLALLRQQRSQDARLSWLAGLQHRVAWGALVWAATWQRRRLEQSTLHVHQSQQQALRWCLQGAQRPHCSLRRSTDISTFRNHLPLTKASQTQQEDSGEQPLPPTSNQDLGEASLQATLLGLAALNKAYPEVLAQGRTARVTLTSPWPRPLPWPGNTLGQVGTPGTKDPRALLLDALRSPGLRALEAGTAVELLDVFLGLETDGEELAGAIAAGNPGAPLRERAAELREALEQGPRGLALRLWPKLQVVVTLDAGGQAEAVAALGALWCQGLAFFSPAYAASGGVLGLNLQPEQPHGLYLLPPGAPFIELLPVKEGTQEEAASTLLLAEAQQGKEYELVLTDRASLTRCRLGDVVRVVGAYNQCPVVRFICRLDQTLSVRGEDIGEDLFSEALGRAVGQWAGAKLLDHGCVESSILDSSAGSAPHYEVFVALRGLRNLSEENRDKLDHCLQEASPRYKSLRFWGSVGPARVHLVGQGAFRALRAALAACPSSPFPPAMPRVLRHRHLAQCLQERVVS [GHDC]	53.7	55.1	-0.104	-0.154	0.585	1.25
MATATIALQVNGQQGGGSEPAAAAAVVAAGDKWKPPQGTDSIKMENGQSTAAKLGLPPLTPEQQEALQKAKKYAMEQSIKSVLVKQTIAHQQQQLTNLQMAAVTMGFGDPLSPLQSMAAQRQRALAIMCRVYVGSIYYELGEDTIRQAFAPFGPIKSIDMSWDSVTMKHKGFAFVEYEVPEAAQLALEQMNSVMLGGRNIKVGRPSNIGQAQPIIDQLAEEARAFNRIYVASVHQDLSDDDIKSVFEAFGKIKSCTLARDPTTGKHKGYGFIEYEKAQSSQDAVSSMNLFDLGGQYLRVGKAVTPPMPLLTPATPGGLPPAAAVAAAAATAKITAQEAVAGAAVLGTLGTPGLVSPALTLAQPLGTLPQAVMAAQAPGVITGVTPARPPIPVTIPSVGVVNPILASPPTLGLLEPKKEKEEEELFPESERPEMLSEQEHMSISGSSARHMVMQKLLRKQESTVMVLRNMVDPKDIDDDLEGEVTEECGKFGAVNRVIIYQEKQGEEEDAEIIVKIFVEFSIASETHKAIQALNGRWFAGRKVVAEVYDQERFDNSDLSA [PUF60]	49.1	50.6	0.0524	0.0253	1.71	5.96
PACS1	50.8	51.4	0.119	-0.211	-0.425	0.437
MTLDMDAVLSDFVRSTGAEPGLARDLLEGKNWDVNAALSDFEQLRQVHAGNLPPSFSEGSGGSRTPEKGFSDREPTRPPRPILQRQDDIVQEKRLSRGISHASSSIVSLARSHVSSNGGGGGSNEHPLEMPICAFQLPDLTVYNEDFRSFIERDLIEQSMLVALEQAGRLNWWVSVDPTSQRLLPLATTGDGNCLLHAASLGMWGFHDRDLMLRKALYALMEKGVEKEALKRRWRWQQTQQNKESGLVYTEDEWQKEWNELIKLASSEPRMHLGTNGANCGGVESSEEPVYESLEEFHVFVLAHVLRRPIVVVADTMLRDSGGEAFAPIPFGGIYLPLEVPASQCHRSPLVLAYDQAHFSALVSMEQKENTKEQAVIPLTDSEYKLLPLHFAVDPGKGWEWGKDDSDNVRLASVILSLEVKLHLLHSYMNVKWIPLSSDAQAPLAQPESPTASAGDEPRSTPESGDSDKESVGSSSTSNEGGRRKEKSKRDREKDKKRADSVANKLGSFGKTLGSKLKKNMGGLMHSKGSKPGGVGTGLGGSSGTETLEKKKKNSLKSWKGGKEEAAGDGPVSEKPPAESVGNGGSKYSQEVMQSLSILRTAMQGEGKFIFVGTLKMGHRHQYQEEMIQRYLSDAEERFLAEQKQKEAERKIMNGGIGGGPPPAKKPEPDAREEQPTGPPAESRAMAFSTGYPGDFTIPRPSGGGVHCQEPRRQLAGGPCVGGLPPYATFPRQCPPGRPYPHQDSIPSLEPGSHSKDGLHRGALLPPPYRVADSYSNGYREPPEPDGWAGGLRGLPPTQTKCKQPNCSFYGHPETNNFCSCCYREELRRREREPDGELLVHRF [OTUD7B]	50.8	50.9	0.376	-0.0993	0.347	0.243
MAIRKKSTKSPPVLSHEFVLQNHADIVSCVAMVFLLGLMFEITAKASIIFVTLQYNVTLPATEEQATESVSLYYYGIKDLATVFFYMLVAIIIHAVIQEYMLDKINRRMHFSKTKHSKFNESGQLSAFYLFACVWGTFILISENYISDPTILWRAYPHNLMTFQMKFFYISQLAYWLHAFPELYFQKTKKEDIPRQLVYIGLYLFHIAGAYLLNLNHLGLVLLVLHYFVEFLFHISRLFYFSNEKYQKGFSLWAVLFVLGRLLTLILSVLTVGFGLARAENQKLDFSTGNFNVLAVRIAVLASICVTQAFMMWKFINFQLRRWREHSAFQAPAVKKKPTVTKGRSSKKGTENGVNGTLTSNVADSPRNKKEKSS [TRAM1]	52.2	52.6	-0.0229	-0.0373	-0.164	-0.999
MSSDFEGYEQDFAVLTAEITSKIARVPRLPPDEKKQMVANVEKQLEEAKELLEQMDLEVREIPPQSRGMYSNRMRSYKQEMGKLETDFKRSRIAYSDEVRNELLGDDGNSSENQRAHLLDNTERLERSSRRLEAGYQIAVETEQIGQEMLENLSHDREKIQRARERLRETDANLGKSSRILTGMLRRIIQNRILLVILGIIVVITILMAITFSVRRH [VTI1A]	55.6	55.8	0.0215	-0.165	-4.18	-3.25
MSDGFDRAPGAGRGRSRGLGRGGGGPEGGGFPNGAGPAERARHQPPQPKAPGFLQPPPLRQPRTTPPPGAQCEVPASPQRPSRPGALPEQTRPLRAPPSSQDKIPQQNSESAMAKPQVVVAPVLMSKLSVNAPEFYPSGYSSSYTESYEDGCEDYPTLSEYVQDFLNHLTEQPGSFETEIEQFAETLNGCVTTDDALQELVELIYQQATSIPNFSYMGARLCNYLSHHLTISPQSGNFRQLLLQRCRTEYEVKDQAAKGDEVTRKRFHAFVLFLGELYLNLEIKGTNGQVTRADILQVGLRELLNALFSNPMDDNLICAVKLLKLTGSVLEDAWKEKGKMDMEEIIQRIENVVLDANCSRDVKQMLLKLVELRSSNWGRVHATSTYREATPENDPNYFMNEPTFYTSDGVPFTAADPDYQEKYQELLEREDFFPDYEENGTDLSGAGDPYLDDIDDEMDPEIEEAYEKFCLESERKRKQ [PAIP1]	52.9	52.8	0.466	0.154	1.49	1.64
FAT1	53.5	53.5	-0.133	-0.025	0.357	0.56
